Assay results reported in the RNAGym collection of RNA variant scans (doi:10.1073/pnas.2313332121).

B1: TPR t1 (parent)
chain: GACCAAUCUGCCCUCAGAGCUCGAGAACAUCUUCGGAUGCAGAGGAGGCAGGCUUCGGUGGCGCGAUAGCGCCAACGUCCUCAACCUCCAAUGCAUCCCACCACAUGAUGAUGCCUGAAGAGCCUUGGUUUUUUG

Variants of: B1
Assay: polymerase ribozyme fitness, log enrichment relative to wild type (log ratio); higher = more active; in vitro selection for triplet polymerase activity
Outline: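 One round of in vitro selection, in triplicate, was applied to PCR-built, transcribed mutant libraries of each subunit of a heterodimeric triplet polymerase ribozyme. The steps were annealing with a biotinylated primer, partner subunit and triplets, incubation frozen at −7 °C, gel excision of extended constructs, streptavidin-bead capture and RT-PCR. Fitness is the logarithm, base 2, of genotype enrichment over wild-type enrichment from inverse-variance-weighted replicate averages of Illumina-sequenced inputs and outputs, keeping genotypes with ≥10 input reads and ≥1 read per output.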

Row | Variant | polymerase ribozyme fitness (log ratio)
1 | G36U G44A G63A | -3.52
2 | G36U C40U A121U G122C | -0.484
3 | C34U G52A C62G A119G C123U G135C | -5.87
4 | C34U U116C | -5.7
5 | G36C C114A G120A | -2.49
6 | A37C U54A G93C | -1.23
7 | A37G U81G A84C | -5.14
8 | C34U G52U U87G U112A G135C | -5.16
9 | G35C U129G | -6.04
10 | G36U G71C | -1.92
11 | G35A C53U G57U G69A A83U C115U | -6.36
12 | A37C G60U C101G | -1.57
13 | C34U U133A | -4.62
14 | G36A C40A C53G U59C C124G | -2.06
15 | A37U G58A A100C C114U U133G | -4.99
16 | G35C C88U | -4.03
17 | A37U G71A | -1.12
18 | G35C C72U C99A C102U U116C U130G | -6.33
19 | C34U U54A | -4.44
20 | G36A C70A | -2.23
21 | G36U C99U C124A | -3.03
22 | A37G G57A U106C G120C U129A | -3.11
23 | G35U G45A U81A C89A G120A | -4.73
24 | A37U G57C C85U U125A | -1.95

Row | Variant | polymerase ribozyme fitness (log ratio)
25 | A37G U96A | -3.44
26 | U38A G42U G63C C79U | -3.1
27 | G35U A46G G69U C98A | -0.783
28 | A37U G93U | -1.86
29 | G35C C53G C56U U130A | -6.86
30 | A37G G44C G48U C73A | -2.25
31 | A37C G39A C62U | -3.21
32 | G35A G69C | -4.88
33 | G36A C94A | -2.77
34 | G36C A50U | -1.67
35 | A37G C70U | -0.719
36 | A37C G61U U109A | -5.9
37 | G36A G45C C114A | -3.75
38 | A37U G57A A66C | -4.07
39 | A37U C53U G58C A66U C76G U106C | -2.44
40 | A37C G61A C73U | -0.816
41 | A37C C40U U55C A91C | -3.28
42 | U38A C101A A119U A121U G122U | -2.88
43 | G35A G42C C73U A84U C123U | -6.85
44 | G35A C70U | -2.72
45 | G36U U78G C97A | -0.315
46 | A37U G44C A100G C104U C115A | -5.44
47 | C34U G45C C124G | -3.01
48 | G35A G48C C123G | -2.75

Row | Variant | polymerase ribozyme fitness (log ratio)
49 | G35C C86A C101U U109C C124G | -7.22
50 | G36A G44U C72A C88A U106G G113C | -5.9
51 | G35A C64A C114G U125G | -7.35
52 | G36C C64U C85U | -1.78
53 | G35U C73G | -5.75
54 | A37G U92A | -2.8
55 | A37U U125A | -1.35
56 | U38A G39U G61U C89U A111C | -3.54
57 | G36A U59A | -0.196
58 | G36C A50C G52A | -4.73
59 | A37G U78A C82G A119U | -0.542
60 | A37C C49A G69U G77C C85A | -3.32
61 | G35C U87A | -5.04
62 | A37U G52C G120C | 0.23
63 | G35A G45C G71C G77C C104U C114G | -5.08
64 | G36U G61A G117U | -5.19
65 | G36U C49U C64U G113A C115U G128U | -6.05
66 | A37U C89A A95U C123A | -3
67 | G36C U78C A95C | -2.98
68 | G36A G48U C56U U112A G117U G120U G127C U133A | -6.88
69 | C34U G122U | -3.58
70 | A37U C86U A105G A121C U132C | -1.31
71 | G35C G93A | -4.92
72 | A37U U131C | -0.648

Row | Variant | polymerase ribozyme fitness (log ratio)
73 | G36U A90G C97G U106C | -1.51
74 | A37U G60A G93C U112C C115G G122U U130A | -6.13
75 | G36U A103G | -4.73
76 | A37U C82G | -0.955
77 | G35A C85G U106G G120C | -4.02
78 | G35A G58C | -3.4
79 | G36U C40U G51U A68G C72U A111U A119C G120A | -8.09
80 | A37U U112A U125C | 1.04
81 | C34U U59A | -5.75
82 | G35C C124A | -2.66
83 | G36U C40G U78G C97A U112G | -1.61
84 | C34U G44U | -4.41
85 | G36C G51C C70U U87A C94U C123U | -5.76
86 | G36A C72A C97U | 0.549
87 | G35A G47A G57U | -3.97
88 | A37U G52U | -1.37
89 | A37G C98U | -1.79
90 | G35U G58A C115U | -7.02
91 | A37U C72U A83G C86U | 0.0963
92 | A37U G120C | -0.129
93 | A37C G48U A108U G120C | -5.53
94 | U38A A43U C53U U112C G135C | -0.362
95 | G36U C72G C102U | -3.82
96 | A37U G48A C97U G110U U125C | -6.59

Row | Variant | polymerase ribozyme fitness (log ratio)
97 | A37U C73A | -0.559
98 | C34U G117U | -5.02
99 | A37U G57A C89G | -3.91
100 | A37G C114U U129C | -3.17
101 | G36U C124G | 0.74
102 | G36U C124U | 0.315
103 | G36A C49G G93A A95G | -3.09
104 | A37U G48U G60A C82G A121U | 1.39
105 | G36U C40A U81A G120C G122A | -4.24
106 | G36A C64G C104G G110A G127U | -6.24
107 | G36A C72G U92A | -5.43
108 | G36U G48A | -1.52
109 | G36U G48U | -2.23
110 | A37C U55G C76U A105U | -2.68
111 | A37C C49A A66C C104U U125G | -1.63
112 | G36U U78G C115G | -4.29
113 | C34U C124A | -2.31
114 | C34U C124U | -2.06
115 | U38A G48C G63C C85U G110A | -5.19
116 | G36U G120U | 0.153
117 | G36U G120C | 0.124
118 | G36A U81A U125A | -2.6
119 | G35A C88G | -4.5
120 | C34U C88G | -3.99

Row | Variant | polymerase ribozyme fitness (log ratio)
121 | A37U G39U C72U U125G | -3.21
122 | G36C C49G C70U | -2.37
123 | C34U G120A A121C | -4.71
124 | G36A G44A C73G C79U U116G | -5.21
125 | A37U A74C A83U G117U | -3.26
126 | A37U C53A G63A C94G G120C U131A | -3.11
127 | G36U U78C C101U C123A | -1.09
128 | G35U G69U C79U | -3.35
129 | G36U G42U | -3.46
130 | G36A C85G U131C | -2.08
131 | C34U G39C A50G | -5.57
132 | A37U G44A G52U C79A G113U G120U | -5.01
133 | G35U C73U U112C | -2.9
134 | U38A C49U C88U | -1.59
135 | A37U G77U | -0.679
136 | A37C A41G C53A C88U | -0.41
137 | G36C A66G C72U | -3.78
138 | G36C U54G C73A | -2.09
139 | G35A G63C G71U C114A | -6.69
140 | G36C C72G | -2.37
141 | U38A C86G A118U | -1.76
142 | G35U G63U | -6.36
143 | A37U C53G U116A | -3.56
144 | C34U U112A | -2.99

Row | Variant | polymerase ribozyme fitness (log ratio)
145 | A37C C85A G113C | -3.33
146 | G36U A46C A50U A84U | -5.6
147 | G36A U54G | -1.04
148 | A37C G63C G77C C88U A105U | -5.64
149 | G36A A46C G61A A90C A118C | -6.53
150 | G35U G39A | -5.13
151 | G36U U132A | -0.893
152 | A37G C64A | -6.74
153 | C34U G69U | -0.765
154 | G36A C62A C89U A95C C114U | -6.66
155 | A37G A121G | 2.3
156 | G35A U87A | -3.5
157 | G36U G60A G113A | -1.62
158 | A37C G42U C88A A111G | -4.05
159 | A37U U81A C101A G110U | -5.35
160 | A37U C56G U87G | -1.26
161 | G36A G110U A121U | -2.05
162 | G36U C64U A119G | 0.0711
163 | G36C C86A | -1.45
164 | G36C C86U | -1.65
165 | A37U C72A | -0.493
166 | G36U A46G | -0.974
167 | G35A U55A U78G C89U A91C C124A U126G G128U | -6.76
